The test system of series [1] is MS2 coat protein. Description: apparent KD of MS2 coat protein; higher = weaker reporter binding. The conditions noted are these: Eterna round: R101. The procedure:
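RNA-MaP: designed FMN/MS2 RNA switches (84 nt design region) are transcribed on-chip within common flanks and titrated with SNAP-549-labelled MS2 coat protein (about 1-3000 nM) in 100 mM Tris pH 7.5, 80 mM KCl, 4 mM MgCl2, without or with 200 uM FMN. Median apparent KD per design; activation ratio = KD,OFF / KD,ON.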

Series [2] relates to MS2 coat protein. In words: apparent KD of MS2 coat protein, switch OFF state (with FMN for OFF switches, without FMN for ON switches); designed switch direction (-1 OFF switch, 1 ON switch): 1; higher = weaker reporter binding. Conditions: FMN input: 0 or 200 uM; Eterna round: R93 (includes R88 designs). Put shortly: (§1)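 In 100 mM Tris-HCl pH 7.5 with 80 mM KCl and 4 mM MgCl2, and without or with constant ligand, SNAP-549-labelled MS2 coat protein was titrated in twofold steps from 0.7 or 1.5 nM to 3 µM. Per-step times went from 0.8–1.5 h down to 10–20 min. The RNA switches were transcribed on-chip from Illumina sequencing clusters, and apparent KD is the per-design median of normalised cluster binding-curve fits.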

Series [3] concerns MS2 coat protein. In words: apparent KD of MS2 coat protein, switch ON state; designed switch direction (-1 OFF switch, 1 ON switch): 1; higher = weaker reporter binding. Conditions: FMN input: 0 or 200 uM; Eterna round: R93 (includes R88 designs). A digest of the protocol:
as §1

As for “AAAAAUUCUUAAGGAUAUGACUCCGAAACGGAGUCAGAAGGUGAGGAUCACCCACCUAGCUCAGCGUCGAAAGACGCUGAGCAA [#SharedSequence ExNG1 - 28] (puzzle (switch architecture): Exclusion NG 1)”, the “apparent KD of MS2 coat protein” value turned out to be 12 nM in the series with MS2 coat protein [1] (input ligand: FMN 200 uM) and 10.9 nM with MS2 coat protein [1] (input ligand: none).
For the sequence “AAAUAAACUCAAGGAUAUCAGUGGCAAAGCCACUGAGAAGGUGAGGAUCACCCACCUAAGAUCACAGGUGACGAAAGUCACCUG [#SharedSequence ExNG1 - 37] (puzzle (switch architecture): Exclusion NG 1)”, the “apparent KD of MS2 coat protein” value stood at 17.6 nM in the series on MS2 coat protein [1] (input ligand: FMN 200 uM) and 11.2 nM in the series with MS2 coat protein [1] (input ligand: none).
Regarding “AAAUAAAUUGAAGGAUAUGACCCUCGAGGUGACUAAAAGUCACCUCGAGGGUCAGAAGGUCGAGGAUCACCCGAUCUAAAUAAA [#SharedSequence SLExNG1: 1-1] (puzzle (switch architecture): Small Loop Exclusion NG 1)”, the “apparent KD of MS2 coat protein” value in the series on MS2 coat protein [1] (input ligand: FMN 200 uM) came out at 13.1 nM; in the series on MS2 coat protein [1] (input ligand: none), 8.27 nM.
Regarding “AAAUAACUUGAAGGAUAUGACCCUCGAGGUGACUAAAAGUCACCUCGAGGGUCAGAAGGUCGAGGAUCACCCGACCAAGUGAAA [#SharedSequence SLExNG1: 9] (puzzle (switch architecture): Small Loop Exclusion NG 1)”, the “apparent KD of MS2 coat protein” value in the series on MS2 coat protein [1] (input ligand: FMN 200 uM) worked out at 13.3 nM; in the series on MS2 coat protein [1] (input ligand: none) it was 9.17 nM.
On to “AAAUGAUAUCAGAAGGGCUCCAGCAAAGCUGGAGCAGGAUAUGAGGAUCACCCAUAUCACCUGACGGUCGAAACGACCGUCAGG [#SharedSequence - IExNG1: 7-1] (puzzle (switch architecture): Inverted Exclusion NG 1)”, for which the results for the “apparent KD of MS2 coat protein” value in the series with MS2 coat protein [1] (input ligand: FMN 200 uM) and in the series on MS2 coat protein [1] (input ligand: none) were 62.1 nM and 15.5 nM, respectively.
“AAGUGAAAUCAGAAGGGCUCCAGCAAAGCUGGAGCAGGAUAUGAGGAUCACCCAUAUCACCUGACGGUCGAAACGACCGUCAGG [#SharedSequence - IExNG1: 5-1] (puzzle (switch architecture): Inverted Exclusion NG 1)”: the “apparent KD of MS2 coat protein” value was 147 nM in the series with MS2 coat protein [1] (input ligand: FMN 200 uM) and 21.2 nM in the series with MS2 coat protein [1] (input ligand: none).
For the sequence “AAUAAAACUCAAGGAUAUCAGUGGCAAAGCCACUGAGAAGGUGAGGAUCACCCACCUACGUGACGCUGGAAACAGCGUCACGAA [#SharedSequence ExNG1 - 33] (puzzle (switch architecture): Exclusion NG 1)”, the “apparent KD of MS2 coat protein” value with MS2 coat protein [1] (input ligand: FMN 200 uM) stood at 36.3 nM; in the series with MS2 coat protein [1] (input ligand: none) it was 15.8 nM.
Take “GAGGACAUAGGAUAGGAUAUAUGAAUAAUUACAUGAGGAUCACCCAUGUCCAUUUAUAUGGGAACAUAGAAGGGUUGUAGUUAUC [SameState2 Malc#34]”: the “apparent KD of MS2 coat protein” value in the series on MS2 coat protein [2] was determined as 683 nM; with MS2 coat protein [3], 1070 nM.
Consider “GCCUAACAUGAGGAUCACCCAUGUAGUGGGUUGUUAGGAUAUGGACCACAAAACGCGGUACCAGAAGGAAUAGAAA [Atbima]”, for which the “apparent KD of MS2 coat protein” value in the series on MS2 coat protein [2] came out at 538 nM; in the series on MS2 coat protein [3], 393 nM.
In the same order, the values of “GCCUAACAUGAGGAUCACCCAUGUAGUGGGUUGUUAGGAUAUGGACCGCAAAACACGGUACCAGAAGGAAUAGAAA [Tiquleraat]” are 720 nM and 448 nM.
In the same order, the values of “GGAAAACAUGAGGAUCACCCAUGUUAGUGUCAUUAAGGAUAUGGGCUUAAGAAUUUGAGACUAGAAGGUGAUGCGC [Soisla]” are 49.2 nM and 21.8 nM.
Regarding “GGAGCCGGCACCGAGGAUAUUCAUAUUAAAACAUGAGGAUCACCCAUGUAGGCCAGAAGGCCUUGGGAGAAGGCGGAUCGGCUCG [Xeonanis]”, the “apparent KD of MS2 coat protein” value in the series with MS2 coat protein [2] came to 481 nM; in the series with MS2 coat protein [3], 29.9 nM.
In the same order, the values of “GGAGCCGGUACUGAGGAUAUUCAUAUUAAAACAUGAGGAUCACCCAUGUAGGCCAGAAAGCCUUGGGAGAAGGCAGAUCGGCUCG [Bienuslete]” are 126 nM and 17.8 nM.
For the sequence “GGAGCCGGUACUGAGGAUAUUCAUAUUAAAACAUGAGGAUCACCCAUGUAGGCCAGAAGGCCUUGGGAGAAGGCAGAUCGGCUCC [Biceusra]”, the figures for the “apparent KD of MS2 coat protein” value in the series on MS2 coat protein [2] and with MS2 coat protein [3] were 266 nM and 20.4 nM, respectively.
In the same order, the values of “GGGAGACAUGAGGAUCACCCAUGUGAGAAGAGGCGAGGAUAUCGAAAGAAAGAAGAGAAACGAGAAGGCGCGAGAA [salish99-SS1-049]” are 64.4 nM and 37 nM.
As to “GGGAGACAUGAGGAUCACCCAUGUGAGAAGAGGCGAGGAUAUCGAAAGAAAGAAGAGAAACGAGAAGGCGCGAGAU [salish99-SS1-053]”, the “apparent KD of MS2 coat protein” value with MS2 coat protein [2] stood at 67 nM; in the series on MS2 coat protein [3] it was 30.3 nM.
Consider “GUCCAACAUGAGGAUCACCCAUGUGCAUGACACUGAGGAUAUGGGACUAAAGGUGCUGGACCAGAAGGCAGAAGAA [Diatquorbi]”, for which the “apparent KD of MS2 coat protein” value in the series with MS2 coat protein [2] was found to be 94.9 nM; in the series on MS2 coat protein [3], 48.3 nM.
For “GUGGCGCAGGUACAGGAUAUGUUUCUCGUAACAUGAGGAUCACCCAUGUACCUAUGAGAUUAAAUGCAGAAGGGUGCACGCCACG [Inedor]” the same measures were 154 nM and 41.1 nM.
For “GUGGUGCAGGUACAGGAUAUGUUGCUCGUAACAUGAGGAUCACCCAUGUACCUAUGAGAUUAAAUGCAGAAGGGUGCACACCACG [Edtiditele]” the same measures were 208 nM and 28.4 nM.
For the sequence “UAAAAACAUGAGGAUCACCCAUGUGAAAAUAUGGGAGGAUAUACAAAGACGAGAGUCAAAGUAGAAGGCCUAAAAU [Mat - Same State 1 - Eli mod - D88]”, the figures for the “apparent KD of MS2 coat protein” value in the series on MS2 coat protein [2] and with MS2 coat protein [3] were 115 nM and 15.7 nM, respectively.
In the same order, the values of “UAAAAUAAAACAUAGGAUAUCAAAAUAAAAACAUGAGGAUCACCCAUGUGAAAACAUGAGAAGGAUGAGAAGGAAAAUAAAAUAA [Meechl SS2 R2 m1]” are 51.6 nM and 25.7 nM.
In the same order, the values of “UAACAACAUGAGGAUCACCCAUGUCAAACAAAUCGAGGAUAUGGGCAGGAUUCUUCCUAUCUAGAAGGCGAAAACA [Ricexebi]” are 83.2 nM and 145 nM.
As for “UAAGACGUGCAUCAGGAUAUGUUCCGAGGCACAUGAGGAUCACCCAUGUGGACGAAGCCUCGGGCACAGAAGGGAUCACUCAGAC [Laarma]”, the “apparent KD of MS2 coat protein” value in the series on MS2 coat protein [2] amounted to 20.4 nM; with MS2 coat protein [3], 17.2 nM.
For “UAGAGACAUGAGGAUCACCCAUGUAGGAUUAUGGGAGGAUAUACAAAGACGAGAGUCAGAGUAGAAGGCCUAGGAA [salish99-ss1-133(!)]” the same measures were 74.6 nM and 24.9 nM.
“UAGAGACAUGAGGAUCACCCAUGUAGGAUUAUGGGAGGAUAUACAAAGACGAGAGUCAGAGUAGAAGGCCUAGGAG [salish99-ss1-135(!)]”: the “apparent KD of MS2 coat protein” value with MS2 coat protein [2] stood at 64.9 nM; in the series on MS2 coat protein [3], 22 nM.
Regarding “UAUAAACAUGAGGAUCACCCAUGUAGAAAUAUGGGAGGAUAUACAAAGACGAAAGUCAAAGUAGAAGGCCUAAUAU [Mat - Same State 1 - Mod - D155]”, the entries for the “apparent KD of MS2 coat protein” value with MS2 coat protein [2] and with MS2 coat protein [3] were 55.3 nM and 18.9 nM, respectively.
As for “UCAAAACAUGAGGAUCACCCAUGUAGCCUAAAGCGAGGAUAUGGGUUUCUUUAAAGAGUACCAGAAGGCGCCAAAA [Enenala]”, the “apparent KD of MS2 coat protein” value stood at 91.1 nM in the series with MS2 coat protein [2] and 27.9 nM in the series with MS2 coat protein [3].
For “UCAAAACAUGAGGAUCACCCAUGUAGUCUAAAGCGAGGAUAUGGGUUUCUUUAAAGAGUACCAGAAGGCGCCAAAA [Entibi]” the same measures were 60.9 nM and 23.3 nM.
In the case of “UCAGAACCGACAAAGGAUAUAGCGGGUGAGACAUGAGGAUCACCCAUGUAUGCAGAACUCAUCCUCUAGAAGGUUGAGACGGAUA [Maedanon]”, the “apparent KD of MS2 coat protein” value in the series with MS2 coat protein [2] was 93.6 nM; with MS2 coat protein [3], 213 nM.
For the sequence “UCCACCAUGGUACAGGAUAUGUCAGACCCGACAUGAGGAUCACCCAUGUGCGGUUCUUUUCCAACGCAGAAGGGUGCAUAGGUGG [Xevetia]”, the results for the “apparent KD of MS2 coat protein” value in the series with MS2 coat protein [2] and in the series with MS2 coat protein [3] were 43.9 nM and 17.1 nM, respectively.
As for “UGGAAGGAGAGAGAGGAUAUCCAAAGGAAAACAUGAGGAUCACCCAUGUAGAAGGUAGGAAAUUGGGAGAAGGCUCAAGAGAGAG [salish99-ss2-117]”, the “apparent KD of MS2 coat protein” value with MS2 coat protein [2] came out at 27.5 nM; in the series on MS2 coat protein [3], 17 nM.
Turning to “UGGAGACAUGAGGAUCACCCAUGUGAGAAGAGGCGAGGAUAUCGAAAGAAAGAAGAGAAACGAGAAGGCGCGAGCA [salish99-SS1-040]”, the “apparent KD of MS2 coat protein” value with MS2 coat protein [2] worked out at 40.2 nM; in the series with MS2 coat protein [3], 25.9 nM.
With “UGUUCGAGUAGUGAGGAUAUUCAUGGGCCCACAUGAGGAUCACCCAUGUAAUGGACCGGGCCGAAGGAGAAGGCGCGUAAAAUUA [Atceve]”, the “apparent KD of MS2 coat protein” value in the series on MS2 coat protein [2] came out at 140 nM; in the series on MS2 coat protein [3] it was 38.2 nM.
Turning to “UUCUCCACUAGCAAGGAUAUCUAAAACUAAACAUGAGGAUCACCCAUGUGACGACCACACGUAUCAGAGAAGGUGCAGGGUGUAU [JR_SS002_Sub308]”, the “apparent KD of MS2 coat protein” value in the series with MS2 coat protein [2] amounted to 42.5 nM; with MS2 coat protein [3] it was 45.4 nM.

These data come from the supplement of paper PMC9170038.
